Data from IntAct's records for PubMed 17699754.

B1: DnaA initiator-associating protein DiaA (Escherichia coli (strain K12)), P66817 (parent)
chain: MQERIKACFTESIQTQIAAAEALPDAISRAAMTLVQSLLNGNKILCCGNGTSAANAQHFAASMINRFETERPSLPAIALNTDNVVLTAIANDRLHDEVYAKQVRALGHAGDVLLAISTRGNSRDIVKAVEAAVTRDMTIVALTGYDGGELAGLLGPQDVEIRIPSHRSARIQEMHMLTVNCLCDLIDNTLFPHQDD
partner: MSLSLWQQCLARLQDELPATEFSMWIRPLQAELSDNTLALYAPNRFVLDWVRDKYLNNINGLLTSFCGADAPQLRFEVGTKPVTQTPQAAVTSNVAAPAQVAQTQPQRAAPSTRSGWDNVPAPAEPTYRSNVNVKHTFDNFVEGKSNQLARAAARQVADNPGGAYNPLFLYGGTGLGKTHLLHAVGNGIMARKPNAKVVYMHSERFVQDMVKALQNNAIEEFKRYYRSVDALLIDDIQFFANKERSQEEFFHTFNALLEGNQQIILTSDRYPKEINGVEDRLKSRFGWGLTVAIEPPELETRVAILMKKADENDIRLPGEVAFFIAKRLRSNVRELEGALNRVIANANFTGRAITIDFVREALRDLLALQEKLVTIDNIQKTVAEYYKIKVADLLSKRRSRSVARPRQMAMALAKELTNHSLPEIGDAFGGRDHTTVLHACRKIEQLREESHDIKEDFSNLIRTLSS

Variants of: B1
Conditions: with dnaa_ecoli dnaA

Variant	effect of a mutation on the interaction
K101E	decreasing interaction
N83D	decreasing interaction
F191S	disrupting interaction
F191L	disrupting interaction
P72S	decreasing interaction
P72A	decreasing interaction
L190P	disrupting interaction
L190A	disrupting interaction

Variants of: B1
Conditions: with dnaa_ecoli dnaA
Remark: another data set of the same source

Variant	effect of a mutation on the interaction
S52F	decreasing interaction
